Data reported in patent US20180086804A1 (COMMISSARIAT A L ENERGIE ATOMIQUE ET AUX ENERGIES …, published 2018).
Where two headings read alike, the source gives them in different places. No end group written: not given here.

Assays:
[1] = target: T1, HLA-DRB3 (HLA-DRB3*01:01) (human); assay: competition ELISA vs biotin-LOL 191-210
T1 construct: mature; purified from homozygous EBV-transformed lymphoblastoid cells with antibody L243

[2] = target: T2, HLA-DR4 (HLA-DRB1*04:01) (human); assay: competition ELISA vs biotin-HA 306-318;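 further: HLA and competitor incubated 24 to 72 h, maximal signal taken from wells lacking competitor, background from wells lacking HLA molecule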
T2 construct: mature; purified from homozygous EBV-transformed lymphoblastoid cells with antibody L243

[3] = target: T3, HLA-DRB5 (HLA-DRB5*01:01) (human); assay: competition ELISA vs biotin-HA 306-318;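 further: HLA and competitor incubated 24 to 72 h, maximal signal taken from wells lacking competitor, background from wells lacking HLA molecule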
T3 construct: mature; purified from homozygous EBV-transformed lymphoblastoid cells with antibody L243

[4] = target: T4, HLA-DR11 (HLA-DRB1*11:01) (human); assay: competition ELISA vs biotin-HA 306-318;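 further: HLA and competitor incubated 24 to 72 h, maximal signal taken from wells lacking competitor, background from wells lacking HLA molecule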
T4 construct: mature; purified from homozygous EBV-transformed lymphoblastoid cells with antibody L243

[5] = target: T5, HLA-DR1 (HLA-DRB1*01:01) (human); assay: competition ELISA vs biotin-HA 306-318;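 further: HLA and competitor incubated 24 to 72 h, maximal signal taken from wells lacking competitor, background from wells lacking HLA molecule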
T5 construct: mature; class II HLA molecule purified from homozygous EBV-transformed lymphoblastoid cells with antibody L243

[6] = target: T6, HLA-DR7 (HLA-DRB1*07:01) (human); assay: competition ELISA vs biotin-YKL
T6 construct: mature; purified from homozygous EBV-transformed lymphoblastoid cells with antibody L243

[7] = target: T7, HLA-DR15 (HLA-DRB1*15:01) (human); assay: competition ELISA vs biotin-A3 152-166
T7 construct: mature; purified from homozygous EBV-transformed lymphoblastoid cells with antibody L243

[8] = target: T8, HLA-DP402 (HLA-DPB1*04:02) (human, UniProt P20036 29-222); assay: competition ELISA vs biotin-Oxy 271-287;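 further: plates incubated 24–72 h, maximum binding defined by wells lacking competitor, background by wells lacking HLA molecule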
T8 construct: mature; purified from homozygous EBV-transformed lymphoblastoid cells with antibody B7/21

[9] = target: T9, HLA-DP401 (HLA-DPB1*04:01) (human, UniProt P20036 29-222); assay: competition ELISA vs biotin-Oxy 271-287;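 further: plates incubated 24–72 h, maximum binding defined by wells lacking competitor, background by wells lacking HLA molecule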
T9 construct: mature; purified from homozygous EBV-transformed lymphoblastoid cells with antibody B7/21

[10] = target: T4, HLA-DR11 (HLA-DRB1*11:01); assay: competition ELISA vs biotin-HA 306-318; remark: listed apart in the source
[11] = target: T7, HLA-DR15 (HLA-DRB1*15:01); assay: competition ELISA vs biotin-A3 152-166; remark: listed apart in the source
[12] = target: T10, HLA-DR3 (HLA-DRB1*03:01) (human); assay: competition ELISA vs biotin-MT 2-16
T10 construct: mature; purified from homozygous EBV-transformed lymphoblastoid cells with antibody L243

[13] = target: T11, HLA-DRB4 (HLA-DRB4*01:01) (human); assay: competition ELISA vs biotin-E2/E168
T11 construct: mature; purified from homozygous EBV-transformed lymphoblastoid cells with antibody L243

[14] = target: T5, HLA-DR1 (HLA-DRB1*01:01); assay: competition ELISA vs biotin-HA 306-318; remark: listed apart in the source
[15] = target: T12, HLA-DR13 (HLA-DRB1*13:01) (human); assay: competition ELISA vs biotin-B1 21-36
T12 construct: mature; purified from homozygous EBV-transformed lymphoblastoid cells with antibody L243

[16] = target: T10, HLA-DR3 (HLA-DRB1*03:01); assay: competition ELISA vs biotin-MT 2-16; remark: listed apart in the source
[17] = target: T3, HLA-DRB5 (HLA-DRB5*01:01); assay: competition ELISA vs biotin-HA 306-318; remark: listed apart in the source
[18] = target: T6, HLA-DR7 (HLA-DRB1*07:01); assay: competition ELISA vs biotin-YKL; remark: listed apart in the source
[19] = target: T2, HLA-DR4 (HLA-DRB1*04:01); assay: competition ELISA vs biotin-HA 306-318; remark: listed apart in the source

## QHYLSYTEESLLPVM-NH2 [CCNB1 366-380]
[1]
  relative affinity: 32
[2]
  relative affinity: 65
[3]
  relative affinity: 471
[4]
  relative affinity: 55
[5]
  relative affinity: 32
[6]
  relative affinity: 1
[7]
  relative affinity: 47
[8]
  relative affinity: 0.3
[9]
  relative affinity: 0.2

## GAFCLALKILDNGEW-NH2 [CCNB1 347-361]
[10]
  relative affinity: 9
[11]
  relative affinity: 1

## GNMRAILIDWLVQVQ-NH2 [CCNB1 199-213]
[12]
  relative affinity: 1
[1]
  relative affinity: 9
[2]
  relative affinity: 56
[3]
  relative affinity: 58
[4]
  relative affinity: 77
[5]
  relative affinity: 27
[6]
  relative affinity: 10
[7]
  relative affinity: 1
[8]
  relative affinity: 24
[9]
  relative affinity: 36
[13]
  relative affinity: 9

## SPMETSGCAPAEEDL-NH2 [CCNB1 128-142]
[14]
  relative affinity: 3590

## SKIGEVDVEQHTLAK-NH2 [CCNB1 310-324]
[15]
  relative affinity: 1800
[16]
  relative affinity: 306
[17]
  relative affinity: 1500
[10]
  relative affinity: 190

## KDIYAYLRQLEEEQA-NH2 [CCNB1 172-186]
[15]
  relative affinity: 5
[18]
  relative affinity: 1600
[16]
  relative affinity: 33
[17]
  relative affinity: 775
[10]
  relative affinity: 1
[14]
  relative affinity: 42
[11]
  relative affinity: 11

## EDLCQAFSDVILAVN-NH2 [CCNB1 140-154]
[16]
  relative affinity: 161
[19]
  relative affinity: 1110
[11]
  relative affinity: 207

## LDYDMVHFPPSQIAA-NH2 [CCNB1 332-346]
[18]
  relative affinity: 20
[19]
  relative affinity: 289
[17]
  relative affinity: 1580
[10]
  relative affinity: 511
[14]
  relative affinity: 224
[11]
  relative affinity: 36

## SKINAENKAKINMAG-NH2 [CCNB1 9-23]
[15]
  relative affinity: 146
[16]
  relative affinity: 22
[17]
  relative affinity: 1000
[10]
  relative affinity: 490

## TALGDIGNKVSEQLQ-NH2 [CCNB1 43-57]
[15]
  relative affinity: 1790
[11]
  relative affinity: 300

## TGKVIDKKLPKPLEK-NH2 [CCNB1 71-85]
[16]
  relative affinity: 228
[17]
  relative affinity: 250

## EQLQAKMPMKKEAKP-NH2 [CCNB1 54-68]
[18]
  relative affinity: 808
[17]
  relative affinity: 35
[10]
  relative affinity: 1410
[14]
  relative affinity: 3740

## SQIAAGAFCLALKIL-NH2 [CCNB1 342-356]
[1]
  relative affinity: 239
[4]
  relative affinity: 3
[5]
  relative affinity: 46
[6]
  relative affinity: 20
[7]
  relative affinity: 21
[8]
  relative affinity: 25
[9]
  relative affinity: 79
[13]
  relative affinity: 57

## EPVKEEKLSPEPILV-NH2 [CCNB1 108-122]
[14]
  relative affinity: 894

## LQLVGVTAMFIASKY-NH2 [CCNB1 244-258]
[12]
  relative affinity: 9
[1]
  relative affinity: 267
[3]
  relative affinity: 1
[4]
  relative affinity: 23
[5]
  relative affinity: 2
[6]
  relative affinity: 1
[7]
  relative affinity: 1
[8]
  relative affinity: 32
[9]
  relative affinity: 77
[13]
  relative affinity: 98

## PKYLLGREVTGNMRA-NH2 [CCNB1 189-203]
[16]
  relative affinity: 764
[19]
  relative affinity: 34
[10]
  relative affinity: 3
[14]
  relative affinity: 17

## NKYATSKHAKISTLP-NH2 [CCNB1 402-416]
[18]
  relative affinity: 9
[19]
  relative affinity: 707
[17]
  relative affinity: 1730
[10]
  relative affinity: 4
[14]
  relative affinity: 367

## RQLEEEQAVRPKYLL-NH2 [CCNB1 179-193]
[15]
  relative affinity: 943
[18]
  relative affinity: 271
[17]
  relative affinity: 2160
[14]
  relative affinity: 9000

## KPLEKVPMLVPVPVS-NH2 [CCNB1 81-95]
[19]
  relative affinity: 500
[14]
  relative affinity: 524

## KKMLQLVGVTAMFIA-NH2 [CCNB1 241-255]
[12]
  relative affinity: 15
[2]
  relative affinity: 1
[3]
  relative affinity: 1
[4]
  relative affinity: 90
[5]
  relative affinity: 3
[6]
  relative affinity: 0.1
[7]
  relative affinity: 1
[8]
  relative affinity: 35
[9]
  relative affinity: 424

## RALNFGLGRPLPLHF-NH2 [CCNB1 291-305]
[18]
  relative affinity: 3
[19]
  relative affinity: 1410
[17]
  relative affinity: 4
[10]
  relative affinity: 1000
[14]
  relative affinity: 1
[11]
  relative affinity: 65

## SDVILAVNDVDAEDG-NH2 [CCNB1 147-161]
[19]
  relative affinity: 54
[11]
  relative affinity: 7

## LAVNDVDAEDGADPN-NH2 [CCNB1 151-165]
[19]
  relative affinity: 667

## KHMTVKNKYATSKHA-NH2 [CCNB1 396-410]
[15]
  relative affinity: 9
[18]
  relative affinity: 533
[19]
  relative affinity: 408
[10]
  relative affinity: 7
[14]
  relative affinity: 7480
[11]
  relative affinity: 229

## GEWTPTLQHYLSYTE-NH2 [CCNB1 359-373]
[18]
  relative affinity: 0.4
[19]
  relative affinity: 500
[17]
  relative affinity: 224
[10]
  relative affinity: 22
[14]
  relative affinity: 548
[11]
  relative affinity: 0.2

## QGLTKHMTVKNKYAT-NH2 [CCNB1 392-406]
[15]
  relative affinity: 7
[18]
  relative affinity: 533
[16]
  relative affinity: 408
[19]
  relative affinity: 577
[17]
  relative affinity: 47
[10]
  relative affinity: 693

## QAVRPKYLLGREVTG-NH2 [CCNB1 185-199]
[15]
  relative affinity: 4
[19]
  relative affinity: 260
[17]
  relative affinity: 1670
[10]
  relative affinity: 22
[14]
  relative affinity: 59

## DRFMQNNCVPKKMLQ-NH2 [CCNB1 231-245]
[19]
  relative affinity: 52
[17]
  relative affinity: 1580
[10]
  relative affinity: 2000
[14]
  relative affinity: 11

## NKVSEQLQAKMPMKK-NH2 [CCNB1 50-64]
[15]
  relative affinity: 258
[17]
  relative affinity: 51
[10]
  relative affinity: 1550

## PGLRPRTALGDIGNK-NH2 [CCNB1 37-51]
[15]
  relative affinity: 422

## AKMPMKKEAKPSATG-NH2 [CCNB1 58-72]
[15]
  relative affinity: 683
[10]
  relative affinity: 40
